In US20020142429:

Columns and labels:
[1] = system: T1, amidated 16'mer peptide RKKFGESEKTKTKEFL
T1 sequence: RKKFGESEKTKTKEFL

[2] = system: peptides centered around the phosphorylation site of eEF-2

In the case of “recombinant eEF-2 kinase (as used in the peptide phosphorylation assay)”, the phosphoacceptor activity [1] is reported as “amidation of the peptide further stabilizes the α-helical structure, resulting in stronger phosphoacceptor activity” and the phosphorylation assays [2] is reported as “This strategy did not yield a peptide that was functional in phosphorylation assays (data not shown)”.
